5 molecules from patent US20120093805A1 (Kyowa Kirin, published 2012) can be followed below.

Numbering of substitutions follows the chain as printed.

Experiment [1] addresses T1, Lec8-produced CD27-Fc (human sugar chain-deficient CD27-Fc) (human, O-linked sugar chains to which galactose is not bound (Tn antigen), from production in Lec8 cells).
T1 construct: also called Lec8-derived CD27-Fc
In words: SPR, Biacore T100; Lec8-derived CD27-Fc amine-coupled to CM5 chip, antibody as analyte, single-cycle kinetics, bivalent analyte model. How it is done:
In order to kinetically analyze the binding activity of the anti-sugar chain-deficient CD27 chimeric antibodies chimeric KM4026, chimeric KM4028, and chimeric KM4030 to the human sugar chain-deficient CD27-Fc, the binding activity was measured by surface plasmon resonance method (SPR method). All of the following manipulations were carried out using Biacore T100 (manufactured by GE Healthcare Bio-Sciences).
The Lec8-derived CD27-Fc obtained in Example 1(7) was immobilized on a CM5 sensor chip (manufactured by GE Healthcare Bio-Sciences) by amine coupling. Assay samples (chimeric KM4026, chimeric KM4028, chimeric KM4030 and chimeric KM4031), which were serially 3-fold diluted from 9 μg/mL to give 5 different concentrations, were sequentially and continuously added to the CD27-Fc-immobilized chip in order of increasing concentrations, in accordance with an automated program (Single Kinetix), followed by measurement.
Using the analysis software, Biacore T100 Evaluation software (manufactured by Biacore) installed on the apparatus, the analysis was carried out using Bivalent Analyte Model to calculate thereby an association rate constant ka and a dissociation rate constant kd of each antibody for the human sugar chain-deficient CD27-Fc.
In general terms: SPR reads the build-up and loss of mass on a sensor chip optically.

Experiment [2] concerns the target T2, human sugar chain-deficient CD27 expressed on Lec8 cells (human, UniProt P26842 20-260, O-linked sugar chains to which galactose is not bound, from expression in Lec8 cells).
T2 construct: CD27/Lec8-4 and CD27/Lec8-M19 are two clones that carry the same protein; also called CD27/Lec8-4; CD27/Lec8-M19
T2 sequence: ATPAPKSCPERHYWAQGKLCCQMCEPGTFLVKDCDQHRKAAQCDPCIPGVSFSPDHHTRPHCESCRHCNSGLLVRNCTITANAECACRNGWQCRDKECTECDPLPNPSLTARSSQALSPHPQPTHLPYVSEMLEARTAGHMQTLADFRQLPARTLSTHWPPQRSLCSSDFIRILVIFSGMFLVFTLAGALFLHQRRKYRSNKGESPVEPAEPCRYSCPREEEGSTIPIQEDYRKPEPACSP
Description: flow cytometry (FCM) on CD27/Lec8-M19 cells [A]. How it is done:
Reaction specificity of the anti-sugar chain-deficient CD27 humanized antibody was measured in the same manner as in Example 7(2). Regarding the cell lines, the CD27/DG44-4 cell and CD27/Lec8-M19 cell having almost the same antigen expression quantity, prepared by the same method of Example 2, were used as assaying cells.
In general terms: Flow cytometry measures light scatter and fluorescence of single cells or particles in a stream.

In experiment [3] the target is T1, Lec8-produced CD27-Fc (human sugar …). Description: SPR, BIACORE T100, as in Example 7(1): Lec8-derived CD27-Fc on CM5 chip, antibody as analyte, bivalent analyte model. How it is done: In order to analyze binding activity of anti-sugar chain-deficient CD27 humanized antibody to human sugar chain-deficient CD27 reaction kinetically, it was measured in the same manner as in Example 7(1) using BIACORE T100 (manufactured by BIACORE).

Experiment [4] addresses T2, human sugar chain-deficient CD27 …. Description: flow cytometry (FCM) on CD27/Lec8-4 cells [A) (a]. How it is done:
The CD27/DG44-4, CD27/Lec8-4 and Lec8 cells constructed in the same manner as in Example 2 were used as assay cells. The CD27/DG44-4 subcultured in an HT-medium supplemented with 500 μg/mL of G418, and the CD27/Lec8-4 subcultured in an HT-medium supplemented with 50 nmol/L of MTX and 500 μg/mL of G418 were peeled off using a 0.02% EDTA solution, and then washed with PBS.
After the reaction was complete, centrifugation was carried out twice with PBS, and ALEXA Fluoro 488-labeled anti-human immunoglobulin G(H+L), ALEXA Fluoro 488-labeled anti-mouse immunoglobulin G(H+L) or ALEXA Fluoro 488-labeled anti-human immunoglobulin M(μ) as a secondary antibody was added at a concentration of 50 μL/well, followed by reaction at ice temperature under shading for 30 minutes.
Again, centrifugation was repeated twice using PBS, and the cells were washed and suspended in 500 μL of 1% BSA-PBS. The fluorescence of 510 to 530 nm excited with a 488 nm argon laser was measured by a flow cytometer (manufactured by Beckman Coulter, Cytomics FC500 MPL).

Experiment [5] deals with T3, sugar chain-deficient cynomolgus CD27 (C-terminal His tag) expressed on Lec8 cells (cynomolgus).
T3 construct: whole, on cells; also called cynomolgus CD27/Lec8 cell; sugar chain-deficient cynomolgus CD27 cell
In words: flow cytometry (FCM) on cynomolgus CD27/Lec8 cells (Example 11(5)) [A]. How it is done: Binding activity of the anti-sugar chain-deficient CD27 humanized antibodies HV0LV0, HV5LV0 and HV7LV0 for cynomolgus CD27 expression cells was measured by a fluorescent cell staining method (cytometer analysis) in the same manner as in Example 9(1). The cynomolgus CD27/DG44 cell and cynomolgus CD27/Lec8 cell prepared in Example 8 were used as the cynomolgus CD27 expression cells.

B1: anti-sugar chain-deficient CD27 chimeric antibody chimeric KM4031 (antibody, human IgG1, V domains shown)
VH: EVQLVESGGGLVEPGRSMKLSCAASGFTFSDYGMAWVRQAPTKGLEWVATITYDGSIYYRDSVKGRFTISRDNAKSTLYLQMNSLRSEDTATYYCTRDPGLYYFDFWGQGVMVTVSS
VL: DIVMTQSPSSLAVSAGETVTLNCQSSQSLLYSGNQKNYLAWYQQKPGQSPKLLIYWASTRQSGVPDRFIGSGSGTDFTLTISSVQAEDLAIYYCQQYYNTPRTFGGGTKLELK
notes: made in FUT8 knockout CHO cells, no core fucose; also called chimeric KM403I
The term koff denotes the first-order rate constant of dissociation. Higher therefore signals a short-lived complex. What is called kon is a measure of how fast the partners come together. Turning to B1, in experiment [1], the Kd turned out to be 0.51 nM, the koff came to 0.0002 s⁻¹ and the association rate constant (kon) was 400000 M⁻¹ s⁻¹.

B2: anti-sugar chain-deficient CD27 chimeric antibody chimeric KM4030 (antibody, human IgG1, V domains shown)
VH: EVQLVESGGGLVQPGRSLKLSCVASGFTFNNYWMTWIRQAPGKGLEWIASITNSGGSTYYPDSVKGRFTISRDNAKGTLYLQMNSLRSEDTATYYCTRDVNTYYGYNALFDYWGQGVMVTVSS
VL: DIQMTQSPSVLSASVGDRVTLNCKASQNINEYLNWYQQKLGEAPKLLIYNTNNLQTGIPSRFSGSGSGTDFTLTISSLQPEDFAAYFCFQHNSWPYTFGAGTKLELK
notes: made in FUT8 knockout CHO cells, no core fucose; also called anti-sugar chain-deficient CD27 chimeric antibody KM4030
As usually defined, the EC50 (read off the curve) is the midpoint of the concentration-response curve. As for B2, the “EC50 (read off the curve)” value is approximately 0.2 µg/mL in experiment [2] and approximately 0.1 µg/mL in experiment [4]. Further, the Kd in experiment [3] came out at 1.1 nM; in experiment [1], 1.07 nM. Further, the koff in experiment [3] is 0.00082 s⁻¹; in experiment [1], 0.00034 s⁻¹. For the same molecule, the on-rate constant (kon) was 740000 M⁻¹ s⁻¹ in experiment [3] and 290000 M⁻¹ s⁻¹ in experiment [1].

B3: anti-sugar chain-deficient CD27 humanized antibody HV5LV0 (antibody, human IgG1, V domains shown)
VH: B2 VH with Q13K, K19R, V23A, T78S, S88A, T93V, Q115L, V117T, M118L
VL: B2 VL with V10S, L21I, N22T, L40P, E42K, I58V, A85T, F87Y, A100Q, L106I
With B3, in experiment [5], the “EC50 (read off the curve)” value is approximately 0.2 µg/mL.

B4: anti-sugar chain-deficient CD27 humanized antibody HV7LV0 (antibody, human IgG1, V domains shown)
VH: B2 VH with Q13K, K19R, V23A, T78S, S88A, Q115L, M118L
VL: B2 VL with V10S, L21I, N22T, L40P, E42K, I58V, A85T, F87Y, A100Q, L106I
For B4, the concentration giving a half-maximal response (EC50 (read off the curve)) in experiment [5] is approximately 0.2 µg/mL.

B5: anti-sugar chain-deficient CD27 humanized antibody HV0LV0 (antibody, human IgG1, V domains shown)
VH: EVQLVESGGGLVKPGRSLRLSCAASGFTFSNYWMTWIRQAPGKGLEWVSSITNSGGSTYYPDSVKGRFTISRDNAKNSLYLQMNSLRAEDTAVYYCARDVNTYYGYNALFDYWGLGTLVTVSS
VL: B2 VL with V10S, L21I, N22T, L40P, E42K, I58V, A85T, F87Y, A100Q, L106I
B5: the “EC50 (read off the curve)” value in experiment [5] is approximately 0.2 µg/mL.
